From the Human Domainome abundance scans (Beltran et al. 2025)
± gives the uncertainty stated by the source.

B1: Transitional endoplasmic reticulum ATPase, residues 26 to 106; numbered along this chain, P55072 (parent)
chain: LIVDEAINEDNSVVSLSQPKMDELQLFRGDTVLLKGKKRREAVCIVLSDDTCSDEKIRMNRVVRNNLRVRLGDVISIQPCP

Variants of: B1
Test: abundance fitness (aPCA) (normalised: wild type 0, dead -1); higher = more abundant; growth selection in yeast, the domain comes from the species named
Details: Homo sapiens

Row | Variant | abundance fitness
1 | L33M | 0.019 ± 0.083
2 | C52I | -0.091 ± 0.2
3 | C52G | -0.197 ± 0.047
4 | C52P | -0.624 ± 0.13
5 | C52Y | -0.439 ± 0.12
6 | G36L | -0.757 ± 0.099
7 | G36F | -0.135 ± 0.092
8 | G36W | -0.618 ± 0.15
9 | G36D | -0.262 ± 0.093
10 | G36T | -0.042 ± 0.096
11 | D22P | -0.862 ± 0.18
12 | D22T | -0.037 ± 0.063
13 | D22W | -0.281 ± 0.057
14 | I77G | -0.817 ± 0.093
15 | R39M | -0.142 ± 0.12
16 | R39Y | -0.136 ± 0.1
17 | D54V | -0.016 ± 0.049
18 | D54N | -0.072 ± 0.089
19 | D54T | 0.218 ± 0.095
20 | D54K | 0.08 ± 0.085
21 | K37P | -0.118 ± 0.097
22 | K37L | -0.018 ± 0.082
23 | K37S | 0.03 ± 0.042
24 | K37F | -0.124 ± 0.14

Row | Variant | abundance fitness
25 | L16V | -0.139 ± 0.043
26 | L16F | -0.267 ± 0.085
27 | L16K | -0.783 ± 0.15
28 | P19K | -0.252 ± 0.18
29 | P19C | -0.179 ± 0.11
30 | P19M | 0.015 ± 0.14
31 | P19V | 0.047 ± 0.054
32 | P19I | 0.088 ± 0.12
33 | A42Q | -0.003 ± 0.096
34 | A42V | -0.065 ± 0.057
35 | A42K | 0.041 ± 0.13
36 | S15Y | 0 ± 0.095
37 | S15E | 0.008 ± 0.076
38 | S15D | -0.674 ± 0.1
39 | S15I | 0.002 ± 0.077
40 | S15T | 0.004 ± 0.067
41 | M21R | -0.888 ± 0.055
42 | M21V | -0.759 ± 0.12
43 | M21C | -0.435 ± 0.12
44 | M21I | -0.124 ± 0.11
45 | M21H | -1.21 ± 0.41
46 | E9F | -0.057 ± 0.084
47 | E9L | -0.087 ± 0.044
48 | E9N | 0.184 ± 0.24

Row | Variant | abundance fitness
49 | E9C | 0.045 ± 0.069
50 | E9V | -0.157 ± 0.052
51 | D49P | -0.743 ± 0.21
52 | D49L | -0.904 ± 0.15
53 | D49C | -0.468 ± 0.4
54 | D49Q | -0.307 ± 0.11
55 | D49K | -0.529 ± 0.41
56 | D49E | -0.094 ± 0.13
57 | D49R | -0.627 ± 0.064
58 | S12Q | 0.093 ± 0.068
59 | S12Y | -0.119 ± 0.099
60 | S12M | 0.088 ± 0.093
61 | S12A | 0.035 ± 0.048
62 | C44S | -0.032 ± 0.069
63 | C44Q | 0.106 ± 0.083
64 | C44I | -0.189 ± 0.099
65 | C44R | -0.104 ± 0.053
66 | Q25I | -0.043 ± 0.081
67 | Q25A | -0.116 ± 0.052
68 | Q25P | -1 ± 0.18
69 | S17F | -0.698 ± 0.18
70 | S17L | -0.854 ± 0.11
71 | L67G | -0.896 ± 0.1
72 | L67N | -0.757 ± 0.2

Row | Variant | abundance fitness
73 | L67M | -0.247 ± 0.073
74 | S48D | -0.137 ± 0.1
75 | S48Y | -0.168 ± 0.1
76 | S48N | 0.049 ± 0.14
77 | S48E | 0.04 ± 0.079
78 | V3K | -0.639 ± 0.23
79 | V3G | -0.811 ± 0.088
80 | V3C | -0.173 ± 0.13
81 | V3P | -0.948 ± 0.31
82 | A6T | 0.046 ± 0.053
83 | A6I | 0.002 ± 0.12
84 | A6F | 0.093 ± 0.085
85 | A6D | -0.054 ± 0.09
86 | D30F | -0.638 ± 0.32
87 | D30G | -0.107 ± 0.041
88 | D30T | -0.051 ± 0.068
89 | D30L | -0.468 ± 0.07
90 | D30C | 0.035 ± 0.12
91 | L47S | -0.068 ± 0.061
92 | L47V | -0.018 ± 0.052
93 | L47Y | -0.087 ± 0.16
94 | L47F | 0.052 ± 0.12
95 | D73T | -0.252 ± 0.097
96 | D73I | -0.655 ± 0.24

Row | Variant | abundance fitness
97 | N60V | -0.418 ± 0.071
98 | N60A | -0.009 ± 0.075
99 | N60M | -0.552 ± 0.16
100 | N60L | -0.756 ± 0.13
101 | L71K | -0.026 ± 0.091
102 | L71E | 0.07 ± 0.069
103 | L71P | -0.083 ± 0.061
104 | L71I | 0.045 ± 0.13
105 | L71N | 0.103 ± 0.14
106 | G72D | -0.187 ± 0.15
107 | G72N | -0.043 ± 0.28
108 | G72W | -0.363 ± 0.073
109 | E23T | -0.041 ± 0.083
110 | E23H | -0.2 ± 0.21
111 | E23Y | -0.164 ± 0.27
112 | E23L | -0.148 ± 0.089
113 | E23P | -1.16 ± 0.32
114 | I57C | -0.492 ± 0.16
115 | I57L | -0.224 ± 0.066
116 | I57V | -0.019 ± 0.058
117 | I57A | -0.356 ± 0.064
118 | I57R | -0.931 ± 0.14
119 | N66A | -0.071 ± 0.069
120 | N66E | 0.042 ± 0.084

Row | Variant | abundance fitness
121 | N66V | -0.104 ± 0.06
122 | N66S | -0.044 ± 0.061
123 | N66F | -0.263 ± 0.083
124 | N66K | 0.086 ± 0.091
125 | R70G | 0.049 ± 0.056
126 | R70N | -0.101 ± 0.12
127 | R70V | -0.076 ± 0.064
128 | R70T | 0.017 ± 0.085
129 | R70Q | -0.157 ± 0.12
130 | T51C | -0.064 ± 0.1
131 | T51P | -0.306 ± 0.16
132 | T51E | 0.05 ± 0.07
133 | T51H | -0.515 ± 0.41
134 | Q18S | -0.052 ± 0.069
135 | Q18N | -0.461 ± 0.32
136 | Q18D | -0.264 ± 0.089
137 | Q18V | 0.001 ± 0.05
138 | Q18P | -0.078 ± 0.092
139 | C80H | -0.064 ± 0.14
140 | C80P | -0.048 ± 0.3
141 | C80E | -0.095 ± 0.17
142 | C80T | -0.038 ± 0.091
143 | C80W | -0.29 ± 0.11
144 | I45E | 0.035 ± 0.1

Row | Variant | abundance fitness
145 | I45F | -0.018 ± 0.076
146 | I45C | 0.008 ± 0.063
147 | I45A | -0.006 ± 0.057
148 | N65Q | -0.075 ± 0.095
149 | N65T | -0.07 ± 0.1
150 | N65R | -0.044 ± 0.054
151 | N65Y | -0.14 ± 0.14
152 | N65C | -0.106 ± 0.095
153 | K20D | -0.39 ± 0.22
154 | K20Q | -0.014 ± 0.11
155 | K20A | -0.005 ± 0.062
156 | K20H | -0.389 ± 0.12
157 | K20F | -0.233 ± 0.09
158 | K20M | 0.04 ± 0.074
159 | R68H | -0.009 ± 0.13
160 | R68S | 0.068 ± 0.073
161 | R68F | -0.165 ± 0.14
162 | P81I | -0.174 ± 0.15
163 | P81C | -0.262 ± 0.29
164 | P81L | -0.405 ± 0.21
165 | E41D | -0.125 ± 0.082
166 | E41I | -0.312 ± 0.14
167 | E41K | 0.045 ± 0.095
